Assay results as given in paper PMC3095670.
Where two headings read alike, the source gives them in different places.

What was measured:
[1] = molecular target: T1, DNA polymerase beta, intact (rat, UniProt P06766 1-335); experiment: fluorescence titration
[2] = molecular target: T2, DNA polymerase beta 8-kDa domain (isolated) (rat, UniProt P06766 1-87); experiment: fluorescence titration
[3] = molecular target: T1, DNA polymerase beta, intact; experiment: fluorescence titration; remark: listed apart in the source
[4] = molecular target: T2, DNA polymerase beta 8-kDa domain …; experiment: FRET

## AAAAAAAAAAAAAAAAAAAA (ssDNA, all adenines 1,N6-etheno-A (chloroacetaldehyde)) [dεA(pεA)19]
[1]
  binding result: binds

## AAAAAAAAAA (ssDNA, all adenines 1,N6-etheno-A (chloroacetaldehyde)) [dεA(pεA)9]
[2]
  binding result: binds

## AAAAAAAAAAAAAA (ssDNA, all adenines 1,N6-etheno-A (chloroacetaldehyde)) [dεA(pεA)13]
[3]
  binding result: binds

## TTTTTTTTTTTTTTTTTTTT (ssDNA) [5'-Fl-dT(pT)19-CP-3']
[4]
  binding result: binds
